Assays:
Assay in all cases: cell-based or functional assay
[1] = target: T1, human Programmed Death-1 (PD-1) expressed on the cell surface (human, UniProt Q15116 25-288)
[2] = target: T1, human Programmed Death-1 (PD-1) …; remark: listed apart in the source
[3] = target: T1, human Programmed Death-1 (PD-1) …; remark: listed apart in the source

T1 sequence (Q15116 25-288): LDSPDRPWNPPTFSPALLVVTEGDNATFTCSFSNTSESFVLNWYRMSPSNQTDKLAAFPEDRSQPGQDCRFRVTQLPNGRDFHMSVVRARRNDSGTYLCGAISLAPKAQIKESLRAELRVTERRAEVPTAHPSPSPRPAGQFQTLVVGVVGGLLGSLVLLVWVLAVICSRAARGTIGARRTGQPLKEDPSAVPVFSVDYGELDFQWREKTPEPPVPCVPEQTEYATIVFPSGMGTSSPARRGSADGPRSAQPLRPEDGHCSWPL

B1: 244C8-2 (100244_C8_HC1 + 100245_C8_LC3) (antibody, V domains shown)
VH: QVQLVQSGAEVKKPGASVKVSCKASGYTFTSYWMHWVRQAPGQGLEWMGMIDPSNSETSLNQKFQGRVTMTVDKSTNTVYMELSSLRSEDTAVYYCARSRGNYAYEMDYWGQGTLVTVSS
VL: DIVLTQSPGTLSLSPGEKVTLSCRASSSVSSNYLYWYQQKPGQAPRLVIYSTSNLATGIPDRFSGSGSGTDYTLTISRLEPEDFAVYFCHQWSSYPPTFGQGTKVEIK
- Fold Induction IFN-γ (relative to isotype control; NSCLC biopsy cells, 20 µg/mL) [1]: 7.76 fold
- Fold Induction IFN-γ (normalized to nivolumab; 20 µg/mL total antibody) [2]: 1.77 fold
- Fold Induction IFN-γ (relative to anti-CD3 + anti-CD28 only; antibody at 5 ug/mL) [3]: 2.66 fold
- Fold Induction IFN-γ (relative to anti-CD3 + anti-CD28 only; antibody at 10 ug/mL) [3]: 2.81 fold

From patent US20160251436A1 (PD 1 ACQUISITION GROUP, published 2016)
